According to patent US20230348603A1 (VERSEAU THERAPEUTICS, published 2023):

T1: Human VSIG4-L-His (human, UniProt Q9Y279 20-283)
T1 construct: long isoform ECD with His tag; also called hVSIG4-L
T1 sequence: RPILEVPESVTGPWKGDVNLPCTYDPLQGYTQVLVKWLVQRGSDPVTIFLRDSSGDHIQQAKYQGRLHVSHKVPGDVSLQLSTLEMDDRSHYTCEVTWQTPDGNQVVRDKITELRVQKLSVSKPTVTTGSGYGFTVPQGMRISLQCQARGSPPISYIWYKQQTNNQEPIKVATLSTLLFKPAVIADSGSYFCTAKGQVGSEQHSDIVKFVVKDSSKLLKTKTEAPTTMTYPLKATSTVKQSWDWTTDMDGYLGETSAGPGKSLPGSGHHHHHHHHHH

T2: Human VSIG4-S-His (human, UniProt Q9Y279 20-283)
T2 construct: short isoform ECD with His tag; also called hVSIG4-S; VISG4-S-His
T2 sequence: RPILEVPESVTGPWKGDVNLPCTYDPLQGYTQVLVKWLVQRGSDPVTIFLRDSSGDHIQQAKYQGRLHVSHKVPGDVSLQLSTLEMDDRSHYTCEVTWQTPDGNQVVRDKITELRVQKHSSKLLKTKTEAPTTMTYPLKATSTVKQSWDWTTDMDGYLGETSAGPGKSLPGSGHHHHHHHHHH

T3: Cynomolgus Monkey VSIG4-L-His (cynomolgus monkey)
T3 construct: ECD with His tag; also called cyVSIG4-L; cyno VSIG4-L-His
T3 chain: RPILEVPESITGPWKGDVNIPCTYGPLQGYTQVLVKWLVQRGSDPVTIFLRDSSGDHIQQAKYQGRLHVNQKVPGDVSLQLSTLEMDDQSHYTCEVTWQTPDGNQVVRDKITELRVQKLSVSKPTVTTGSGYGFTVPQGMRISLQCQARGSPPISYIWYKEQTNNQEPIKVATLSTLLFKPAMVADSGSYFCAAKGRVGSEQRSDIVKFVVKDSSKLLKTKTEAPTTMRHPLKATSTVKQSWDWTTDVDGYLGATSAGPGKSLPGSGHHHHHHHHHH

T4: Mouse VSIG4-His (mouse)
T4 construct: ECD with His tag; also called mVSIG4
T4 chain: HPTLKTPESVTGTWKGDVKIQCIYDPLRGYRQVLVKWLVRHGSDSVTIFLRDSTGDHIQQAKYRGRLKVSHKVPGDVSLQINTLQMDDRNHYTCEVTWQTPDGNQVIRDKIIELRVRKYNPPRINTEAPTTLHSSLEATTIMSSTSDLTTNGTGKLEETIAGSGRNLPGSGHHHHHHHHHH

T5: Human VSIG4-L-CHO (human VSIG4 long isoform on CHO-K1 cells) (human, UniProt Q9Y279 20-399)
T5 construct: also called hVSIG4-L (flow cytometry)
T5 sequence: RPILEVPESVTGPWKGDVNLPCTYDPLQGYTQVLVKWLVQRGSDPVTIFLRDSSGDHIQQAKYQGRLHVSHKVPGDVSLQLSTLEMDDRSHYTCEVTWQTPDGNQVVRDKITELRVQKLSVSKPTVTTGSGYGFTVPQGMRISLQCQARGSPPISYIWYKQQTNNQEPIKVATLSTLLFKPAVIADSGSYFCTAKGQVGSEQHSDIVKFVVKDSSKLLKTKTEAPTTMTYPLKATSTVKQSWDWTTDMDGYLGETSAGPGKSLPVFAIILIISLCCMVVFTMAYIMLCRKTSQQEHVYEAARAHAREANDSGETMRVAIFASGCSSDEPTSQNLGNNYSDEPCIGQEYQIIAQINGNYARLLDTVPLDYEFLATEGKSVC

B1: 14F8.H6 murine hybridoma antibody (antibody, V domains shown)
VH: EVHLVESGGALVKPGGSLKLSCTASGFTFSNSVMSWIRQTPEKRLEWVATIGSGGTYIYYPDSVKGRFTISRDNSKNTLFLQMTSLRSEDTALYYCARHIYGYDVVDYWGQGTTLTVST
VL: DIVMTQSHRFMSTSVGDRVSITCKASHDVSNVVAWYQQKPGQSPELLIYSASYRYTGVPARFTGSGSGTDFTFTISSVQAEDLAVYFCQQHFTTPLTFGAGTSLEVR
notes: murine IgG purified from hybridoma supernatant
B2: 16F6.E1 murine hybridoma antibody (antibody, V domains shown)
VH: QVQLQQPGAEMVRPGASLKLSCKASGYTFTSYWMHWVKQRPGQGLEWIGKIDPSKNTTHYNQNFRDKATLTVDRSSSTAYMQLNSLTSEDSAVYFCVTWDGDFTYWGQGTLVTISA
VL: NIVLTQSPPSLAVSLGQRATISCRASESVDSYGNSFMHWYQQKPGQPPKLLIYLASNLESGVPARFSGSGSRTDFTLTIDPVEADDAATYFCHQNNEDPWTFGGGTKLEIK
notes: murine IgG purified from hybridoma supernatant; also called 16F6.H6
B3: 13E11.A4 murine hybridoma antibody (antibody, V domains shown)
VH: EVQLVESGGALVKPGGSLKLSCVASRFNLNNCVMSWIRQTPEKRLEWVATIDSGSIYTYYPDSVKGRFTISRDNAKNTLYLQMSSLRSEDTAVYYCVRHIYGYDVVDNWGQGTTLTVAS
VL: DIVMTQSHKFMSTSVGDNVSITCKASQYVSNTVAWYQQKPGQSPKLLIYSASYRNTGVPDRFTGSGSGTNFTFTISNMQAEDLAFYYCQQHYTSPLTFGAGTKLELK
notes: as for B1
B4: 12A08 mouse/human chimeric IgG4 (S228P) kappa (antibody, V domains shown)
VH: EVMLVESGGGLVKPGGSLKLSCAASGFTFDDFYMYWVRQTPEKRLEWVASISDGGTYTYYPDSVKGRFTISRDNAKNTLYLQLSSLKSEDTAMYYCARGVDKYYYAMDYWGQGTSVTVSS
VL: QILLTQSPAIMSASPGEKVTITCSASSSVSYMHWFQQKPGTSPKLWIYSTSNLASGVPARFSGSGSGTSYSLTISRMEAEDAATYYCQQRSSYPLTFGAGTKLELKR
B5: 15C04 mouse/human chimeric IgG4 (S228P) kappa (antibody, V domains shown)
VH: QIQLQESGPSLVRPSQTLSLTCSVTGDSITSGYWNWIRKFPGDKLEYLGYISYSGFTYYNPSLKSRISITRDTSKNQYYLQLNSVTTEDTATYYCASSYYGSSLGFPYWGQGTLVTVSA
VL: DVVMTQTPLSLPVSLGDQASISCRSSQSLVHSNGNTYLHWYLQKPGQSPKLLIYKVSNRFSGVPDRFSGSGSGTDFTLKISRVEAEDLGVYFCSQSTHVPWTFGGGTKLEIKR

Legend:
[1] = target: T1, Human VSIG4-L-His; test: BLI (Octet), mouse IgG on AMC sensor, antigen 100 nM;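 further: octet Red384 biolayer interferometry with immobilized mouse hybridoma antibodies, 300 s association then 300 s dissociation at 30 °C, isotype-control reference subtraction, 1:1 global fit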
Protocol: (§1) The binding affinity of murine hybridoma antibodies was determined by biolayer interferometry (BLI), using a ForteBio Octet® Red384 system. […] Biosensors were rehydrated prior to the assay in kinetics buffer for 10 minutes and then equilibrated in kinetics buffer for 60 seconds. Antibody was then immobilized for 300 seconds followed by a 120 second baseline wash in fresh kinetics buffer, 300 second analyte association, and 300 second dissociation in the same buffer wells as the baseline wash step. All assay steps occurred at 30° C. with an acquisition rate of 5.0 Hz. Processing parameters included reference subtraction, with mouse IgG1 or mouse IgG2a used as an isotype control for reference sensor subtraction. Y-axis data was aligned to the average baseline step for the last 5 seconds and all steps were inter-step corrected to the start of the dissociation step. High frequency noise was removed using Savitzky-Golay filtering and final fitting was a 1:1 global binding model to both association and dissociation.

[2] = target: T2, Human VSIG4-S-His; test: as above
Protocol: as §1

[3] = target: T3, Cynomolgus Monkey VSIG4-L-His; test: as above
Protocol: as §1

[4] = target: T1, Human VSIG4-L-His; test: SPR (FJB)
[5] = target: T3, Cynomolgus Monkey VSIG4-L-His; test: SPR (FJB)
[6] = target: T6, Human VSIG4-L-Fc (human); test: ligand blocking of C3b, IgG
T6 construct: also called hVSIG4-L-Fc; hVSIG4-L
Target sequence in this assay (chain, as listed by the source limits assumed): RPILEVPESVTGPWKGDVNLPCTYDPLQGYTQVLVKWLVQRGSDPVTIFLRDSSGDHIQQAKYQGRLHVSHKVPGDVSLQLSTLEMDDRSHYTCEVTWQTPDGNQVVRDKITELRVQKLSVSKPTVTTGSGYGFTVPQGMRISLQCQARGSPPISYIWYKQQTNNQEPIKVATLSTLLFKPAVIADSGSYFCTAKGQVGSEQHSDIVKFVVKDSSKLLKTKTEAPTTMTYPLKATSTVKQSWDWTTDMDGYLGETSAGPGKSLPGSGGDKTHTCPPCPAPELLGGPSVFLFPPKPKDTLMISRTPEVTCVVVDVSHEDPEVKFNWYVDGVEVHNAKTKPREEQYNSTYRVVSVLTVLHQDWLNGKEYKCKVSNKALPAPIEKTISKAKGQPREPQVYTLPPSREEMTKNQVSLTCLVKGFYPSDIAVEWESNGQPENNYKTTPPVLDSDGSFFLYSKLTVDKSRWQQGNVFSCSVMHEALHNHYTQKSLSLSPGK

[7] = target: T6, Human VSIG4-L-Fc; test: ligand blocking of iC3b, IgG
[8] = target: T6, Human VSIG4-L-Fc; test: ELISA, IgG 50 nM on coated antigen;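 further: Mouse-human chimeric IgG4 antibodies incubated 1 h on plate-coated VSIG4 proteins, bound IgG detected with HRP-labelled anti-human IgG, irrelevant antibody and protein as specificity controls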
[9] = target: T7, Human VSIG4-S-Fc (human); test: ELISA, IgG 50 nM on coated antigen;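 further: Mouse-human chimeric IgG4 antibodies incubated 1 h on plate-coated VSIG4 proteins, bound IgG detected with HRP-labelled anti-human IgG, irrelevant antibody and protein as specificity controls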
T7 construct: short isoform ECD fused to human Fc1; also called hVSIG4-S

[10] = target: T3, Cynomolgus Monkey VSIG4-L-His; test: ELISA, IgG 50 nM on coated antigen;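 further: Mouse-human chimeric IgG4 antibodies incubated 1 h on plate-coated VSIG4 proteins, bound IgG detected with HRP-labelled anti-human IgG, irrelevant antibody and protein as specificity controls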
[11] = target: T4, Mouse VSIG4-His; test: ELISA, IgG 50 nM on coated antigen;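 further: Mouse-human chimeric IgG4 antibodies incubated 1 h on plate-coated VSIG4 proteins, bound IgG detected with HRP-labelled anti-human IgG, irrelevant antibody and protein as specificity controls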
[12] = target: T1, Human VSIG4-L-His; test: BLI (Octet), IgG on AHC sensor, antigen 100 nM
[13] = target: T2, Human VSIG4-S-His; test: BLI (Octet), IgG on AHC sensor, antigen 100 nM
[14] = target: T3, Cynomolgus Monkey VSIG4-L-His; test: BLI (Octet), IgG on AHC sensor, antigen 100 nM
[15] = target: T5, Human VSIG4-L-CHO (human VSIG4 long …); test: flow cytometry, CHO-K1 cells expressing hVSIG4-L
[16] = target: T6, Human VSIG4-L-Fc; test: BLI binning on hVSIG4-L-Fc, competitor 12A08 first;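 further: normalized to binding of second antibody without first competitor antibody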
[17] = target: T6, Human VSIG4-L-Fc; test: BLI binning on hVSIG4-L-Fc, competitor 12A12 first;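 further: normalized to binding of second antibody without first competitor antibody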
Protocol: Epitopic diversity of functional antibodies was further assessed by antibody cross-blocking experiments, performed on a ForteBio Octet® Red384 system. […] All assay steps occurred at 30° C. with an acquisition rate of 5.0 Hz.
Binning results were calculated using ForteBio Data Analysis HT software. Antibody “a” and antibody “b” steps were defined, and the maximum binding calculation was averaged at the last 10% of the step duration. Once the matrix was generated, the antibody “b” binding signal in the absence of any antibody “a” was used to normalize the maximum binding of the competitor antibodies. Hierarchical clustering was set with a similarity metric of Pearson and Lingang Criteria by Mean, and the normalized maximum binding nm shift is reported in Table 9 below.

[18] = target: T6, Human VSIG4-L-Fc; test: BLI binning on hVSIG4-L-Fc, competitor 13H11 first;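 further: normalized to binding of second antibody without first competitor antibody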
[19] = target: T6, Human VSIG4-L-Fc; test: BLI binning on hVSIG4-L-Fc, competitor 14C05 first;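 further: normalized to binding of second antibody without first competitor antibody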
[20] = target: T6, Human VSIG4-L-Fc; test: BLI binning on hVSIG4-L-Fc, competitor 14D12 first;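 further: normalized to binding of second antibody without first competitor antibody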
[21] = target: T6, Human VSIG4-L-Fc; test: BLI binning on hVSIG4-L-Fc, competitor 15A06 first;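 further: normalized to binding of second antibody without first competitor antibody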
[22] = target: T6, Human VSIG4-L-Fc; test: BLI binning on hVSIG4-L-Fc, competitor 15C03 first;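 further: normalized to binding of second antibody without first competitor antibody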
[23] = target: T6, Human VSIG4-L-Fc; test: BLI binning on hVSIG4-L-Fc, competitor 15C04 first;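 further: normalized to binding of second antibody without first competitor antibody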
[24] = target: T6, Human VSIG4-L-Fc; test: BLI binning on hVSIG4-L-Fc, competitor 16E03 first;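 further: normalized to binding of second antibody without first competitor antibody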
[25] = target: T6, Human VSIG4-L-Fc; test: BLI binning on hVSIG4-L-Fc, competitor 16E10 first;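 further: normalized to binding of second antibody without first competitor antibody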
[26] = target: T6, Human VSIG4-L-Fc; test: ligand competition ELISA (FJB), blocked ligand C3b
[27] = target: T6, Human VSIG4-L-Fc; test: ligand competition ELISA (FJB), blocked ligand iC3b
[28] = target: T5, Human VSIG4-L-CHO (human VSIG4 long …); test: flow cytometry (FJB), 200 nM mAb, huVSIG4-L CHO-K1 cells
[29] = target: T5, Human VSIG4-L-CHO (human VSIG4 long …); test: flow cytometry (FJB), 200 nM mAb, huVSIG4-L CHO-K1 over parental CHO-K1

T7 sequence (chain, as listed by the source limits assumed): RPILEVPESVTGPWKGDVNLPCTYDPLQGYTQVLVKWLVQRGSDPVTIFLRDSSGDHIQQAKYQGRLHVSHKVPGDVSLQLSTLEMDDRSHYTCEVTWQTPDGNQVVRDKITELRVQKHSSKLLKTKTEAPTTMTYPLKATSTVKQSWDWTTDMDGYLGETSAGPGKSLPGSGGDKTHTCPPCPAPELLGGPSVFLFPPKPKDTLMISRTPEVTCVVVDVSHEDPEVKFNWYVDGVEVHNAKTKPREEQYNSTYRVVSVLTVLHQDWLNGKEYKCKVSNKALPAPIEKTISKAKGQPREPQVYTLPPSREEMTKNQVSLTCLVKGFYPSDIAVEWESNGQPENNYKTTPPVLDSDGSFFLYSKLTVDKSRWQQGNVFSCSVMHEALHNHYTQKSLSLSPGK

Binder	Kd [1] [nM]	Kd [2] [nM]	Kd [3] [nM]	Kd [4] [nM]	Kd [5] [nM]	Percent Blocking C3b [6] [%]	Percent Blocking iC3b [7] [%]	ELISA OD450 [8] [OD450]	ELISA OD450 [9] [OD450]	ELISA OD450 [10] [OD450]	ELISA OD450 [11] [OD450]	Kd [12] [nM]	Kd [14] [nM]	EC50 [15] [nM]	normalized maximum binding nm shift [16] [normalized]	normalized maximum binding nm shift [17] [normalized]	normalized maximum binding nm shift [18] [normalized]	normalized maximum binding nm shift [19] [normalized]	normalized maximum binding nm shift [20] [normalized]	normalized maximum binding nm shift [21] [normalized]	also measured
B1	1.72	5.86	2.02																		
B2	0.472	2.87	0.802																		
B3	1.76	4.99	1.4																		
B4				6.7	3.9	96	98	4.44	3.37	4.43	0.056	20.6	15.7	6.8	0.1	0.78	0.69	0.72	0.7	0.76	Kd [13]: 18.8 nM; normalized maximum binding nm shift [22]: 0.89 normalized; normalized maximum binding nm shift [23]: 0.94 normalized; normalized maximum binding nm shift [24]: 0.1 normalized; normalized maximum binding nm shift [25]: 0.44 normalized; IC50 [26]: 1 nM; IC50 [27]: 0.4 nM; Binding (200 nM) MFI [28]: 121000 MFI; Binding (200 nM) Fold-Over-Parental [29]: 357 fold
B5				5.4	15.6	93	94	4.43	3.28	4.53	0.052	25.4	183	8.9	0.8	0.82	0.68	0.72	0.72	0.08	normalized maximum binding nm shift [22]: 0.81 normalized; normalized maximum binding nm shift [23]: 0.16 normalized; normalized maximum binding nm shift [24]: 0.74 normalized; normalized maximum binding nm shift [25]: 0.92 normalized; IC50 [26]: 19.7 nM; IC50 [27]: 17 nM; Binding (200 nM) MFI [28]: 53200 MFI; Binding (200 nM) Fold-Over-Parental [29]: 73 fold
